Measured values from the nanobody polyreactivity screen of Harvey et al. (2022).

Assay: yeast display, Sf9 membrane polyspecificity reagent, FACS + sequencing; frameworks hold sequencing errors
How it was run: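 After 36–48 hours of galactose induction, yeast (Saccharomyces cerevisiae BJ5465) displaying a synthetic nanobody library were stained at 4 °C for 1 hour with 10% biotinylated, detergent-solubilized Sf9 membrane reagent. Streptavidin microbeads enriched the stained cells before FACS sorting into low and high (top ~1%) gates on anti-HA and streptavidin fluorescence. Each clone's polyreactivity label reflects its gate of origin.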

Sequence | polyreactivity (PSR sort gate)
QVQLVESGGGLVQAGGSLRLSCAASGRIFSYYAMGWYRHAPWKERELVAAISRSGAKTYYADSVKGRFTISRDNAKNSVYLQMNSLKPEDTAVYYCNADTLRRRYNYWGQGTQVTVSS | high polyreactivity
QVQLVESGGGLVQAGGSLRLSCAASGRIFSYYAMGWYRQAPGKERELVAAISWSGGRTYYADSVKGRFTISRDNAKNTVYLQMNSLKPEDTAVYYCAARLKLYLPRSAYDYWGQGTQVTVSS | high polyreactivity
QVQLVESGGGLVQAGGSLRLSCAASGRIFSYYAMGWYRQAPGKERELVASITSGGSTYADSVKGRFTISRDNAKNTVYLQMNSLKPEDTAVYYCAKGYYWLSTYGDSRYGYWGQGTQVTVSS | high polyreactivity
QVQLVESGGGLVQAGGSLRLSCAASGRIFSYYAMGWYRQAPGKERELVATINSGGSTNYADSVKGRFTISRDNAKNTVYLQMNSLKPVATAVYYCAASPVWWYDYWGQGTQVTVSS | low polyreactivity
QVQLVESGGGLVQAGGSLRLSCAASGRIFSYYAMGWYRQAPGKERELVATISGSGGSTYYADSVKGRFTNSRDNAKNNVYLQMNSLKPEDTAVYYCAARRSGRTRYYWGQGTQVTVSS | high polyreactivity
QVQLVESGGGLVQAGGSLRLSCAASGRIFSYYAMGWYRQAPGTERELVAAISWSGSRTNYADSVKGRFTISRDNAKNTVYLQMKSLKPEDTAVYYCAAEDWSTQGSATVQYDYWGQGTEVTVSS | high polyreactivity
QVQLVESGGGLVQAGGSLRLSCAASGRIFSYYDMGWYRQAPGKERELVARISYSGDSTYYADSVKGRFTISRDNAKNTVYLQMNSLKPEDTAVYYCADEVDSGYSEYYWGQGTQVTVSS | low polyreactivity
QVQLVESGGGLVQAGGSLRLSCAASGRIFTAYYAMGWYRQEPGKESELVASISSSGTSTYADSVKGRFTISRDNAKNSVYLQMISLKPEDTAVYYCATRKLRTRRYDYGYWGQGTQVTVSS | low polyreactivity
QVQLVESGGGLVQAGGSLRLSCAASGRIFTFYAMGWYRQAPAKERELVAAISSGGSTYYADSVKGRFTISRDNAKNTVYLQMNSLKPEDTAVYYCAAEPVWYADYDYWGQGTQVTVSS | low polyreactivity
QVQLVESGGGLVQAGGSLRLSCAASGRIFTGYAMGWYRQAPGKERELVAAISSRGGSTYYADSVKGRFTISRDNAKNTVYLQMNSLKPEDTAVYYCNAYQWRHRYTMYYWGQGTQVTVSS | high polyreactivity
QVQLVESGGGLVQAGGSLRLSCAASGRIFTHNAMGWYRQAPGKERELVAAISYSGVSTYYADSVKGRFTISRDNAKNTVYLHMNSLKPEDTAVYYCNALIQSWRARIRRYYWGQGTQVTVSS | low polyreactivity
QVQLVESGGGLVQAGGSLRLSCAASGRIFTHNAMGWYRQAPGKERELVAAITSGGRTTYADSVKGRFTISRDNAKNTVYLQMNSLKPEDTAVYYCNADTGLGSLDFYNRDYWGHGTQVTVSS | low polyreactivity
QVQLVESGGGLVQAGGSLRLSCAASGRIFTHNVMGWYRQAPGKERELVAAISGGGGSTYYADSVKGRFTISRDNAKNTVYLQMNSLKPEDTAVYYWAAVGFGRQGQEDYWGQGTHVTVSS | low polyreactivity
QVQLVESGGGLVQAGGSLRLSCAASGRIFTIYAMGWYRQAPGKERELVAAISDRGTRTYYADSVKGRFTISRDNAKNTVYLQMNSLKPEDSEVYYCATDALYTYGYDYWGQGTQVTVSS | low polyreactivity
QVQLVESGGGLVQAGGSLRLSCAASGRIFTIYAMGWYRQAPGKERELVATISRRGGSTYYADSVKGRFTISRDNAKNTVYLQMNSLKPEDTAVYYCAADSVITWWAYDYWGQGTQVTVSS | high polyreactivity
QVQLVESGGGLVQAGGSLRLSCAASGRIFTKYAMGWYRQAPGKERELVAAISGSGGNTYYADSVKGRFTISRDNAKNTVYLQMNSLKPEDTAVYYCAVESWRYVGFGYWGQGSQVTVSS | high polyreactivity
QVQLVESGGGLVQAGGSLRLSCAASGRIFTKYAMGWYRQAPGKERELVASISSGGSTYYADSVKGRFTISRDNAKNTVYLQMNSLKPEDTAVYYCARSTGTSRRMDDWGQGTQVTVSS | high polyreactivity
